Values quoted from earlier work in patent US7235367B2, “Method using crystal structure of estrogen receptor-β complex” (Genetics Institute, LLC., priority 2000, dated 2007).

Target: ER-β (Homo sapiens, UniProt Q92731)
Details: co-activator, ER-β versus ER-α

Chain of ER-β (Q92731 whole entry): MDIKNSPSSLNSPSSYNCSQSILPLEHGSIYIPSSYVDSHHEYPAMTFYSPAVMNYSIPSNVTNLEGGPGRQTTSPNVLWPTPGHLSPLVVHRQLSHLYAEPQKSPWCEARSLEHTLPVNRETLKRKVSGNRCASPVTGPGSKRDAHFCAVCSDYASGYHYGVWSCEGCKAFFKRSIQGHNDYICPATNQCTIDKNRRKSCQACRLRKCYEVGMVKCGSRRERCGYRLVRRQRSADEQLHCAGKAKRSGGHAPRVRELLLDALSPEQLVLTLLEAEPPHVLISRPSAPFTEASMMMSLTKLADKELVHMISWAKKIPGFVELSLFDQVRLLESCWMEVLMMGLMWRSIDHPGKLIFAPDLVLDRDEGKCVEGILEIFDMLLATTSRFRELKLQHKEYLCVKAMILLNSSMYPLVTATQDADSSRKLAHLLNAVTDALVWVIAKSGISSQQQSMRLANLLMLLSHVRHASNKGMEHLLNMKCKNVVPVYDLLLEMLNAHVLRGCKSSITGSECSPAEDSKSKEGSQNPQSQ

## SRC-1: co-activator protein that preferentially activates ER-β
  preferential activation of ER subtype: preferentially activates ER-β
